Experimental data from the Human Domainome abundance scans (Beltran et al. 2025).
± gives the uncertainty stated by the source.

B1: Tripartite motif-containing protein 44, residues 174 to 218; numbered along this chain, Q96DX7 (parent)
chain: VAKRKCPDHGLDLSTYCQEDRQLICVLCPVIGAHQGHQLSTLDEA

Variants of: B1
Experiment: abundance fitness (aPCA) (normalised: wild type 0, dead -1); higher = more abundant; growth selection in yeast, the domain comes from the species named
Conditions: Homo sapiens

Variant | abundance fitness
VAKCKCPDHGLDLSTYCQEDRQLICVLCPVIGAHQGHQLSTLDEA | -0.248 ± 0.056
VAKIKCPDHGLDLSTYCQEDRQLICVLCPVIGAHQGHQLSTLDEA | -0.046 ± 0.042
VAKMKCPDHGLDLSTYCQEDRQLICVLCPVIGAHQGHQLSTLDEA | 0.023 ± 0.033
VAKKKCPDHGLDLSTYCQEDRQLICVLCPVIGAHQGHQLSTLDEA | 0.007 ± 0.034
VAKFKCPDHGLDLSTYCQEDRQLICVLCPVIGAHQGHQLSTLDEA | -0.041 ± 0.047
VAKTKCPDHGLDLSTYCQEDRQLICVLCPVIGAHQGHQLSTLDEA | -0.07 ± 0.032
VAKNKCPDHGLDLSTYCQEDRQLICVLCPVIGAHQGHQLSTLDEA | 0.071 ± 0.064
VAKGKCPDHGLDLSTYCQEDRQLICVLCPVIGAHQGHQLSTLDEA | -0.057 ± 0.025
VAKDKCPDHGLDLSTYCQEDRQLICVLCPVIGAHQGHQLSTLDEA | 0.016 ± 0.033
VAKLKCPDHGLDLSTYCQEDRQLICVLCPVIGAHQGHQLSTLDEA | -0.061 ± 0.03
VAKVKCPDHGLDLSTYCQEDRQLICVLCPVIGAHQGHQLSTLDEA | -0.086 ± 0.029
VAKSKCPDHGLDLSTYCQEDRQLICVLCPVIGAHQGHQLSTLDEA | -0.054 ± 0.032
VAKPKCPDHGLDLSTYCQEDRQLICVLCPVIGAHQGHQLSTLDEA | -0.314 ± 0.037
VAKAKCPDHGLDLSTYCQEDRQLICVLCPVIGAHQGHQLSTLDEA | -0.062 ± 0.029
VAKHKCPDHGLDLSTYCQEDRQLICVLCPVIGAHQGHQLSTLDEA | -0.198 ± 0.051
VAKEKCPDHGLDLSTYCQEDRQLICVLCPVIGAHQGHQLSTLDEA | -0.046 ± 0.028
VAKWKCPDHGLDLSTYCQEDRQLICVLCPVIGAHQGHQLSTLDEA | -0.162 ± 0.028
VAHRKCPDHGLDLSTYCQEDRQLICVLCPVIGAHQGHQLSTLDEA | -0.08 ± 0.057
VASRKCPDHGLDLSTYCQEDRQLICVLCPVIGAHQGHQLSTLDEA | -0.056 ± 0.031

Variant | abundance fitness
VARRKCPDHGLDLSTYCQEDRQLICVLCPVIGAHQGHQLSTLDEA | -0.073 ± 0.026
VAVRKCPDHGLDLSTYCQEDRQLICVLCPVIGAHQGHQLSTLDEA | -0.076 ± 0.028
VAPRKCPDHGLDLSTYCQEDRQLICVLCPVIGAHQGHQLSTLDEA | -0.093 ± 0.031
VAGRKCPDHGLDLSTYCQEDRQLICVLCPVIGAHQGHQLSTLDEA | -0.052 ± 0.026
VAIRKCPDHGLDLSTYCQEDRQLICVLCPVIGAHQGHQLSTLDEA | 0.032 ± 0.04
VADRKCPDHGLDLSTYCQEDRQLICVLCPVIGAHQGHQLSTLDEA | 0.024 ± 0.032
VAFRKCPDHGLDLSTYCQEDRQLICVLCPVIGAHQGHQLSTLDEA | -0.124 ± 0.054
VATRKCPDHGLDLSTYCQEDRQLICVLCPVIGAHQGHQLSTLDEA | -0.013 ± 0.033
VAARKCPDHGLDLSTYCQEDRQLICVLCPVIGAHQGHQLSTLDEA | -0.134 ± 0.027
VAYRKCPDHGLDLSTYCQEDRQLICVLCPVIGAHQGHQLSTLDEA | -0.137 ± 0.052
VAERKCPDHGLDLSTYCQEDRQLICVLCPVIGAHQGHQLSTLDEA | 0.02 ± 0.028
VANRKCPDHGLDLSTYCQEDRQLICVLCPVIGAHQGHQLSTLDEA | -0.042 ± 0.074
VAQRKCPDHGLDLSTYCQEDRQLICVLCPVIGAHQGHQLSTLDEA | -0.038 ± 0.033
VALRKCPDHGLDLSTYCQEDRQLICVLCPVIGAHQGHQLSTLDEA | -0.09 ± 0.027
VACRKCPDHGLDLSTYCQEDRQLICVLCPVIGAHQGHQLSTLDEA | -0.379 ± 0.033
VAWRKCPDHGLDLSTYCQEDRQLICVLCPVIGAHQGHQLSTLDEA | -0.196 ± 0.029
IAKRKCPDHGLDLSTYCQEDRQLICVLCPVIGAHQGHQLSTLDEA | 0.036 ± 0.035
DAKRKCPDHGLDLSTYCQEDRQLICVLCPVIGAHQGHQLSTLDEA | -0.112 ± 0.041
MAKRKCPDHGLDLSTYCQEDRQLICVLCPVIGAHQGHQLSTLDEA | -0.032 ± 0.056

Variant | abundance fitness
KAKRKCPDHGLDLSTYCQEDRQLICVLCPVIGAHQGHQLSTLDEA | -0.005 ± 0.041
SAKRKCPDHGLDLSTYCQEDRQLICVLCPVIGAHQGHQLSTLDEA | -0.027 ± 0.061
EAKRKCPDHGLDLSTYCQEDRQLICVLCPVIGAHQGHQLSTLDEA | -0.049 ± 0.038
GAKRKCPDHGLDLSTYCQEDRQLICVLCPVIGAHQGHQLSTLDEA | -0.107 ± 0.029
RAKRKCPDHGLDLSTYCQEDRQLICVLCPVIGAHQGHQLSTLDEA | -0.39 ± 0.057
CAKRKCPDHGLDLSTYCQEDRQLICVLCPVIGAHQGHQLSTLDEA | -0.029 ± 0.06
PAKRKCPDHGLDLSTYCQEDRQLICVLCPVIGAHQGHQLSTLDEA | -0.11 ± 0.22
WAKRKCPDHGLDLSTYCQEDRQLICVLCPVIGAHQGHQLSTLDEA | -0.231 ± 0.051
HAKRKCPDHGLDLSTYCQEDRQLICVLCPVIGAHQGHQLSTLDEA | -0.275 ± 0.085
QAKRKCPDHGLDLSTYCQEDRQLICVLCPVIGAHQGHQLSTLDEA | -0.159 ± 0.16
FAKRKCPDHGLDLSTYCQEDRQLICVLCPVIGAHQGHQLSTLDEA | -0.197 ± 0.06
LAKRKCPDHGLDLSTYCQEDRQLICVLCPVIGAHQGHQLSTLDEA | -0.196 ± 0.038
NAKRKCPDHGLDLSTYCQEDRQLICVLCPVIGAHQGHQLSTLDEA | -0.097 ± 0.047
YAKRKCPDHGLDLSTYCQEDRQLICVLCPVIGAHQGHQLSTLDEA | -0.226 ± 0.055
AAKRKCPDHGLDLSTYCQEDRQLICVLCPVIGAHQGHQLSTLDEA | -0.13 ± 0.034
VAKRLCPDHGLDLSTYCQEDRQLICVLCPVIGAHQGHQLSTLDEA | -0.15 ± 0.028
VAKRHCPDHGLDLSTYCQEDRQLICVLCPVIGAHQGHQLSTLDEA | -0.24 ± 0.063
VAKRWCPDHGLDLSTYCQEDRQLICVLCPVIGAHQGHQLSTLDEA | -0.308 ± 0.03
VAKRECPDHGLDLSTYCQEDRQLICVLCPVIGAHQGHQLSTLDEA | -0.173 ± 0.03
